{"source": "patent US8901069B2", "about": "“Protein matrix for light-initiated electron transfer” (Research Foundation of The City University of New York, priority 2009, dated 2014)", "molecules": {"B1": {"name": "GEIWKQHEDALQKFEEALNQFEDLKQLGGSGCGSGGEIWKQHEDALQKFEEALNQFEDLKQL (protein, listed as Chemical synthesis)", "chain": "GEIWKQHEDALQKFEEALNQFEDLKQLGGSGCGSGGEIWKQHEDALQKFEEALNQFEDLKQL", "notes": "homodimeric helix-loop-helix variant of HP-6, recombinantly expressed in E. coli"}, "B2": {"name": "CC-10: HP-7 modified to incorporate the preferred consensus sequence (protein, listed as Chemical synthesis)", "chain": "GEIWKQHEDALQKFEEALNQFEDLKQLGGSGCGSGGEILKQHADAAQKIFEALNQFEDLKQL"}, "B3": {"name": "CC-9: HP-7 peptide with specific Glu→Ala mutations (protein, listed as Chemical synthesis)", "chain": "GEIWKQHEDALQKFEEALNQFEDLKQLGGSGCGSGGEIWKQHADALQKFAEALNQFADLKQL"}}, "key": {"[1]": {"experiment": "Reduction potential of polypeptide-bound heme/ferric cofactor vs. hydrogen electrode", "format": "physicochemical", "procedure": "In Example 2, the reduction potential of the peptides prepared in Example 1 is regulated by modulation of peptide ionic charge and cofactor structure. The net charge of the polypeptides is calculated using conventional methods known in the art."}, "[2]": {"experiment": "Heme binding affinity by titration of heme into anaerobic protein solution", "details": "oxidized heme; read-out: oxidized heme binding constant"}, "[3]": {"format": "physicochemical", "procedure": "The reduced heme binding constants are also measured for His42→Phe mutants of the polypeptides."}}}
{"molecule": "CGGGEIWKQHEEALKKFEEALKQFEELKKL (listed as Chemical synthesis) [HP-1]", "values": [{"measurement": "reduction potential difference spanned by three distinct ferric cofactors bound via bis-histidine ligation", "setting": "[1]; three ferric cofactors, FIG. 4A", "value": "approximately 400 mV"}]}
{"molecule": "B1", "values": [{"measurement": "Kd", "setting": "[2]", "value": 220, "unit": "pM"}, {"measurement": "reduction potential of heme complex, more positive than HP-1-heme complex", "setting": "[1]; difference vs HP-1-heme complex, earlier experiments", "value": 45, "unit": "mV"}]}
{"molecule": "B2", "values": [{"measurement": "Kd", "setting": "[2]", "value": 10.7, "unit": "pM"}, {"measurement": "stability of heme-bound complex", "setting": "[3]", "value": "long-term stability"}]}
{"molecule": "B3", "values": [{"measurement": "increase in bound heme reduction potential compared to HP-7", "setting": "[1]; difference vs HP-7, FIG. 4B", "value": 101, "unit": "mV"}]}
